Source: the RNAGym collection of RNA variant scans (doi:10.7554/elife.80360)

B1: HDV Ribozyme (parent)
chain: GGCCGGCAUGGUCCCAGCCUCCUCGCUGGCGCCGGCUGGGCAACAUUCCGAGGGGACCGUCCCCUCGGUAAUGGCGAAUGGGACCCA

Variants of: B1
Assay: self-cleavage, relative activity (ratio to wild type); higher = more cleavage; co-transcriptional

With U79A G81U as the variant, how does the self-cleavage read?
Its self-cleavage is 0.295.

With U79C C86A as the variant, how does the self-cleavage read?
Its self-cleavage is 0.513.

Which self-cleavage does the source give for U79C G80A here?
Its self-cleavage is 0.129.

Which self-cleavage does the source give for U79C G80U here?
The self-cleavage was 0.267.

Which self-cleavage does the source give for U79G A83C here?
The self-cleavage was 0.204.

For U79G C84U, which self-cleavage is on record?
The self-cleavage was 0.554.

With U79G C86A as the variant, how does the self-cleavage read?
The self-cleavage was 0.675.

With U79G G80C as the variant, how does the self-cleavage read?
Its self-cleavage is 0.277.

With G80A A83C as the variant, how does the self-cleavage read?
Its self-cleavage is 0.135.

Which self-cleavage does the source give for G80A C84A here?
The self-cleavage was 0.58.

For G80A C84G, which self-cleavage is on record?
Its self-cleavage is 0.161.

For G80A C85A, which self-cleavage is on record?
Its self-cleavage is 0.408.

Which self-cleavage does the source give for G80A G82U here?
The self-cleavage was 0.0511.

With G80C A83C as the variant, how does the self-cleavage read?
Its self-cleavage is 0.128.

With G80C A87U as the variant, how does the self-cleavage read?
The self-cleavage was 0.177.

For G80C C84A, which self-cleavage is on record?
The self-cleavage was 0.144.

Which self-cleavage does the source give for G80C G81A here?
Its self-cleavage is 0.089.

Which self-cleavage does the source give for G80U A87C here?
Its self-cleavage is 0.192.

Which self-cleavage does the source give for G80U A87G here?
The self-cleavage was 0.272.

Which self-cleavage does the source give for G80U C84A here?
The self-cleavage was 0.652.

For G80U C85A, which self-cleavage is on record?
Its self-cleavage is 0.288.

Which self-cleavage does the source give for G80U C86G here?
Its self-cleavage is 0.243.

For G80U G81A, which self-cleavage is on record?
Its self-cleavage is 0.277.

With G80U G81U as the variant, how does the self-cleavage read?
Its self-cleavage is 0.191.

Which self-cleavage does the source give for G80U G82C here?
The self-cleavage was 0.332.

With G81A A83C as the variant, how does the self-cleavage read?
Its self-cleavage is 0.165.

For G81A A83U, which self-cleavage is on record?
Its self-cleavage is 0.187.

With G81A A87U as the variant, how does the self-cleavage read?
Its self-cleavage is 0.565.

Which self-cleavage does the source give for G81A C84U here?
Its self-cleavage is 0.327.

With G81A C85A as the variant, how does the self-cleavage read?
Its self-cleavage is 0.35.

With G81C C84A as the variant, how does the self-cleavage read?
The self-cleavage was 0.26.

For G81C G82C, which self-cleavage is on record?
The self-cleavage was 0.106.

With G81U A83G as the variant, how does the self-cleavage read?
Its self-cleavage is 0.152.

Which self-cleavage does the source give for G81U C84A here?
Its self-cleavage is 0.378.

Which self-cleavage does the source give for G82A here?
Its self-cleavage is 0.418.

For G82A C85A, which self-cleavage is on record?
Its self-cleavage is 0.253.

For G82A C85U, which self-cleavage is on record?
The self-cleavage was 0.495.

Which self-cleavage does the source give for G82C here?
The self-cleavage was 0.259.

With G82C C84U as the variant, how does the self-cleavage read?
Its self-cleavage is 0.166.

Which self-cleavage does the source give for G82C C86U here?
Its self-cleavage is 0.285.

With G82U as the variant, how does the self-cleavage read?
The self-cleavage was 0.41.

Which self-cleavage does the source give for G82U A83G here?
The self-cleavage was 0.137.

Which self-cleavage does the source give for G82U A83U here?
Its self-cleavage is 0.289.

With G82U A87U as the variant, how does the self-cleavage read?
The self-cleavage was 0.462.

Which self-cleavage does the source give for G82U C86G here?
Its self-cleavage is 0.39.

For A83C A87C, which self-cleavage is on record?
Its self-cleavage is 0.499.

With A83C C84A as the variant, how does the self-cleavage read?
Its self-cleavage is 0.78.

For A83C C84G, which self-cleavage is on record?
The self-cleavage was 0.231.

For A83C C86A, which self-cleavage is on record?
The self-cleavage was 0.554.

For A83G A87G, which self-cleavage is on record?
The self-cleavage was 0.733.

Which self-cleavage does the source give for A83G A87U here?
Its self-cleavage is 0.861.

Which self-cleavage does the source give for A83G C85U here?
Its self-cleavage is 0.9.

With A83U C84U as the variant, how does the self-cleavage read?
Its self-cleavage is 0.87.

With A83U C86U as the variant, how does the self-cleavage read?
Its self-cleavage is 0.95.

For C84A A87U, which self-cleavage is on record?
The self-cleavage was 1.02.

With C84A C85A as the variant, how does the self-cleavage read?
Its self-cleavage is 0.571.

Which self-cleavage does the source give for C84A C85U here?
Its self-cleavage is 0.639.

With C84A C86G as the variant, how does the self-cleavage read?
Its self-cleavage is 0.755.

With C84G A87C as the variant, how does the self-cleavage read?
The self-cleavage was 0.409.

For C84G A87G, which self-cleavage is on record?
Its self-cleavage is 0.282.

For C84G C85A, which self-cleavage is on record?
Its self-cleavage is 0.928.

For C84G C85U, which self-cleavage is on record?
The self-cleavage was 0.719.

Which self-cleavage does the source give for C84G C86G here?
Its self-cleavage is 0.522.

For C84U C86A, which self-cleavage is on record?
The self-cleavage was 0.767.

Which self-cleavage does the source give for C85A here?
Its self-cleavage is 0.932.

For C85A C86A, which self-cleavage is on record?
Its self-cleavage is 0.924.

With C85G as the variant, how does the self-cleavage read?
Its self-cleavage is 0.948.

For C85G A87C, which self-cleavage is on record?
The self-cleavage was 0.849.

Which self-cleavage does the source give for C85G C86A here?
The self-cleavage was 0.763.

Which self-cleavage does the source give for C85U here?
The self-cleavage was 0.978.

For C85U A87U, which self-cleavage is on record?
Its self-cleavage is 0.956.

For C85U C86A, which self-cleavage is on record?
The self-cleavage was 0.923.

For C85U C86G, which self-cleavage is on record?
Its self-cleavage is 0.946.

For C86A, which self-cleavage is on record?
Its self-cleavage is 0.926.

With C86A A87U as the variant, how does the self-cleavage read?
The self-cleavage was 0.9.

For C86G, which self-cleavage is on record?
Its self-cleavage is 0.983.

Which self-cleavage does the source give for C86G A87G here?
The self-cleavage was 0.905.

Which self-cleavage does the source give for C86G A87U here?
Its self-cleavage is 0.965.

With C86U as the variant, how does the self-cleavage read?
Its self-cleavage is 0.935.

Which self-cleavage does the source give for C86U A87U here?
The self-cleavage was 0.835.
